± gives the uncertainty stated by the source.
Experiment: protein stability index of a GFP-peptide fusion (yeast GPS) (PSI 1-4); higher = more stable; sorted into four equal gates, so the index is relative within each strain
Method in brief: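 Plasmids in a pooled yeast library fused tiled 17-residue yeast protein peptides downstream of GFP and also expressed Cherry. Mid-log cultures grown without leucine were sorted into four equal gates by GFP/Cherry fluorescence ratio. Each gate's plasmids were PCR-amplified and Illumina-sequenced, and reads were matched to strains by barcodes. The protein stability index is derived by multiplying each gate's read frequency by its gate number and summing the results.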

Sequence | protein stability index (doa10∆) | protein stability index (pdr5∆) | protein stability index (san1∆) | protein stability index (ubr1∆)
LLKQYPKDSSSTFREWK [YJR042W/NUP85] | 2.54 ± 0.045 | 2.6 ± 0.048 | 2.71 ± 0.038 | 2.81 ± 0.042
ISQSQLGKFKNIIASPL [SIN4] | 1.73 ± 0.067 | 1.96 ± 0.049 | 2.01 ± 0.088 | 2.08 ± 0.057
YPVLRKLYKKIAKFERS [YIL149C/MLP2] | 2.42 ± 0.079 | 1.99 ± 0.06 | 2.56 ± 0.071 | 2.88 ± 0.039
KARFVSKLAEEKIRAAG [RPL28] | 2.508 ± 0.025 | 2.66 ± 0.027 | 2.6 ± 0.028 | 2.793 ± 0.024
ILQYSRTWYESFCGFLL [YJR042W/NUP85] | 2.11 ± 0.061 | 1.72 ± 0.049 | 1.39 ± 0.14 | 1.42 ± 0.067
WWTNSHHDGKLWNLNAY [PRP8] | 2.9 ± 0.21 | 2.76 ± 0.14 | 2.98 ± 0.082 | 2.45 ± 0.14
LKNIMKVSDPYVPTRNT [RPN4] | 3.07 ± 0.15 | 2.67 ± 0.18 | 2.78 ± 0.071 | 2.59 ± 0.11
MSEVITITKRNGAFQNS [RRP4] | 2.33 ± 0.083 | 2.31 ± 0.076 | 2.79 ± 0.067 | 2.18 ± 0.059
ILQYFEKWISSKNSKLS [SIR3] | 2.8 ± 0.15 | 1.48 ± 0.087 | 2 ± 0.26 | 1.27 ± 0.083
FAQPVADIENSTSGDPS [SSN2] |  | 3.14 ± 0.23 | 2.9 ± 0.16 | 2.75 ± 0.24
ILRRQAILRQQQQMANN [GAL11] | 2.49 ± 0.15 | 3.02 ± 0.16 | 2.62 ± 0.18 | 2.65 ± 0.13
NKNNNNRHNLLNDVVSF [SWI1] | 2.99 ± 0.061 | 1.98 ± 0.036 | 1.99 ± 0.037 | 1.9 ± 0.034
NGGITNTATNALRPSDI [YOR098C/NUP1] | 2.63 ± 0.13 | 2.69 ± 0.14 | 2.11 ± 0.12 | 2.84 ± 0.12
AVKYGLNHVVALIENKK [RPL8A] | 2.26 ± 0.19 | 2.48 ± 0.12 |  | 2.45 ± 0.067
TAAANTEKLSNGFSFTK [YOR098C/NUP1] | 2.81 ± 0.079 | 2.48 ± 0.057 | 2.56 ± 0.065 | 2.46 ± 0.044
ECKGCDNKIDIYQIHIP [RPB2] | 3 ± 0.044 | 2.87 ± 0.048 | 3.02 ± 0.035 | 2.54 ± 0.032
NGLKDQLNEERSRYRRE [YIL149C/MLP2] | 2.77 ± 0.19 | 2.5 ± 0.22 |  | 2.86 ± 0.17
IPGEYVTYALSGYVRSR [RPS21A] | 2.18 ± 0.29 |  | 2.61 ± 0.21 | 2.92 ± 0.16
REQASKSKKSWLNRLNN [YMR153W/NUP53] | 2.31 ± 0.11 | 2.45 ± 0.099 | 1.62 ± 0.15 | 2.92 ± 0.063
VEFCRNINSTDKSIDTS [YML103C/NUP188] | 3.08 ± 0.11 | 2.93 ± 0.091 | 3.39 ± 0.097 | 3.12 ± 0.053
KNIKIIMATNRLDILDP [RPT6] | 2.91 ± 0.14 | 2.55 ± 0.079 | 2.41 ± 0.068 | 3.3 ± 0.058
AQADKQDISSSTRVEFE [FAS2] | 3.12 ± 0.081 | 3.17 ± 0.068 | 3.08 ± 0.06 | 3.33 ± 0.055
VLLVLPFTDRSVVRGNT [COB] | 3.11 ± 0.14 | 3.31 ± 0.15 | 3.52 ± 0.07 | 3.34 ± 0.15
EDHMLKKIENTMLENIT [RPO21] | 2.73 ± 0.1 | 2.78 ± 0.086 | 2.92 ± 0.077 | 2.85 ± 0.083
SSFYINHASMDVYNREL [BRR2] | 3.02 ± 0.12 | 2.96 ± 0.1 | 3.04 ± 0.076 | 3.17 ± 0.09
RELYKYVRKHDPLNSNI [PRP28] | 2.96 ± 0.083 | 2.86 ± 0.082 | 2.96 ± 0.05 | 3.16 ± 0.09

Sequence | protein stability index (doa10∆) | protein stability index (pdr5∆) | protein stability index (san1∆) | protein stability index (ubr1∆)
CRGELKADIGKPGRMPF [CDC53] | 2.21 ± 0.071 | 2.65 ± 0.069 | 2.91 ± 0.085 | 2.97 ± 0.067
VRIMKAKRNLPHTTLVN [CDC53] | 1.9 ± 0.093 | 2.23 ± 0.07 | 1.53 ± 0.16 | 1.77 ± 0.072
TMMANFEEWIKMATDNK [BRN1] | 3.19 ± 0.12 | 3.16 ± 0.11 | 3.08 ± 0.1 | 3.35 ± 0.1
NPLKNKQVLLRLNPYAK [RPL4A] | 1.34 ± 0.17 | 1.21 ± 0.11 | 1.15 ± 0.15 | 1.13 ± 0.18
VTNSMRQTLAPYAVLSQ [YJR042W/NUP85] | 2.33 ± 0.065 | 2.83 ± 0.054 | 2.53 ± 0.051 | 2.62 ± 0.048
THNDIDSTAVALEEGLN [YJL039C/NUP192] | 2.78 ± 0.096 | 3.05 ± 0.047 | 2.53 ± 0.082 | 2.56 ± 0.06
SSIDKIEDRDFLVRYAC [SIR3] | 2.9 ± 0.17 |  |  | 3.02 ± 0.21
ERRLQTQVYKLGLAKSV [RPS9A] | 1.29 ± 0.067 | 1.23 ± 0.056 | 1.2 ± 0.18 | 1.23 ± 0.064
FSGKGVHKLRHYLVNLT [GRR1] | 1.28 ± 0.037 | 1.44 ± 0.034 | 1.39 ± 0.07 | 1.45 ± 0.029
MKYDIFAKFIHHIHHFE [IRR1] | 2.03 ± 0.079 | 2.54 ± 0.055 | 2.46 ± 0.065 | 2.74 ± 0.05
IFEKELMYQIKKECALL [SRB4] | 2.87 ± 0.28 | 3.2 ± 0.21 | 2.61 ± 0.26 | 3.44 ± 0.19
RSRISSPHGLINLNVDD [SRB4] | 2.47 ± 0.052 | 2.48 ± 0.061 | 2.61 ± 0.075 | 2.15 ± 0.043
KPAFSFGAKPDENKASA [YJL041W/NSP1] | 3.16 ± 0.093 | 3.3 ± 0.074 | 2.76 ± 0.06 | 3.24 ± 0.063
DVAFLKTAYSIYLSQNE [RPN1] | 2.25 ± 0.052 | 2.51 ± 0.056 | 2.16 ± 0.062 | 2.64 ± 0.058
DAIYRELTKNPNSNVEL [SMC1] | 3.31 ± 0.3 | 2.91 ± 0.15 | 3.33 ± 0.088 | 3.38 ± 0.13
HLLPRNEWIKAQEDVPY [QCR7] | 2.31 ± 0.072 | 1.68 ± 0.086 | 2.17 ± 0.089 | 1.88 ± 0.046
LLGARHYTPAVDLWSVG [SSN3] | 1.29 ± 0.19 | 1.15 ± 0.19 |  | 
DKFFTLSAENIEERLVA [SCL1] | 3.01 ± 0.074 | 3.01 ± 0.084 | 3.06 ± 0.082 | 3.02 ± 0.069
DSKMIQDLSRNTLGKGQ [SNU114] | 3.25 ± 0.098 | 3.34 ± 0.11 | 3.34 ± 0.12 | 3.61 ± 0.14
HISFNFSMLQMAFEASA [BRR2] | 1.42 ± 0.075 | 1.45 ± 0.066 | 1.41 ± 0.23 | 1.24 ± 0.06
LPNKSTISKTVSSTIPR [FAS2] | 2.01 ± 0.072 | 2.63 ± 0.077 | 2.92 ± 0.11 | 2.94 ± 0.084
LDEDDVNADDDDFMHSE [RPB4] | 2.94 ± 0.096 | 2.82 ± 0.088 | 2.53 ± 0.12 | 3.07 ± 0.09
YIWRYLPAPPVCIRPSV [RPO31] | 1.48 ± 0.14 | 1.27 ± 0.1 |  | 1.2 ± 0.23
ENVQIGEDFMEVDYEDK [SRB4] | 3.48 ± 0.13 | 1.97 ± 0.17 |  | 2.2 ± 0.084
FNGLKPLIQNSMRTIMK [PRP8] | 2.56 ± 0.091 | 2.51 ± 0.12 | 2.15 ± 0.17 | 2.56 ± 0.15

— the supplement of paper PMC9732359
